Reference: publication PMC11476435, “Functional Relationships between L1CAM, LC3, ATG12, and Aβ” (International Journal of Molecular Sciences, 2024)

B1: mouse L1-LIR peptide containing the extracellular LC3-interacting region (LIR) motif of L1 (peptide)
peptide: SHNGVLTGYLLSYHPVEGESKEQ
notes: 23-amino-acid peptide of mouse L1 with the LIR motif 952LSYHPV957 of the fourth fibronectin type III homologous repeat; source: synthetic peptide, bought: Schafer-N
B2: recombinant human ATG12 (autophagy-related protein 12) (natural protein, UniProt O94817 1-140, looked up)
chain: MAEEPQSVLQLPTSIAAGGEGLTDVSPETTTPEPPSSAAVSPGTEEPAGDTKKKIDILLKAVGDTPIMKTKKWAVERTRTIQGLIDFIKKFLKLVASEQLFIYVNQSFAPSPDQEVGTLYECFGSDGKLVLHYCKSQAWG
notes: source: bought: BIOZOL

Tests used:
Conditions in all cases: both partners purified
[1] = target: recombinant human LC3B (microtubule-associated protein 1 light-chain 3) (human, UniProt Q9GZQ8 1-120); assay: ELISA; competition: recombinant LC3B, ATG12 or Aβ1-42 coated; L1Fc in solution alone or with a 20-fold molar excess of Aβ, L1-LIR peptide or mutated LIR peptide as competitor, 1 h at room temperature; detected with HRP-coupled anti-Fc antibody
[2] = target: B2; assay: as above
[3] = target: T1, L1Fc, extracellular domain of mouse L1 fused to Fc from human IgG (mouse, UniProt P11627 35-1112); assay: ELISA; recombinant human ATG12 (10 µg/mL) coated on 384-well plates; different concentrations (1–200 µg/mL) of L1Fc or CHL1Fc in solution, 1 h at room temperature; detected with HRP-coupled anti-Fc antibody
T1 construct: The methods say that the Fc fusion presents dimers, not monomeric domains; also called extracellular domain of L1; soluble L1Fc chimera; source: recombinant, production and purification described in [111]
T1 sequence (P11627 35-1112): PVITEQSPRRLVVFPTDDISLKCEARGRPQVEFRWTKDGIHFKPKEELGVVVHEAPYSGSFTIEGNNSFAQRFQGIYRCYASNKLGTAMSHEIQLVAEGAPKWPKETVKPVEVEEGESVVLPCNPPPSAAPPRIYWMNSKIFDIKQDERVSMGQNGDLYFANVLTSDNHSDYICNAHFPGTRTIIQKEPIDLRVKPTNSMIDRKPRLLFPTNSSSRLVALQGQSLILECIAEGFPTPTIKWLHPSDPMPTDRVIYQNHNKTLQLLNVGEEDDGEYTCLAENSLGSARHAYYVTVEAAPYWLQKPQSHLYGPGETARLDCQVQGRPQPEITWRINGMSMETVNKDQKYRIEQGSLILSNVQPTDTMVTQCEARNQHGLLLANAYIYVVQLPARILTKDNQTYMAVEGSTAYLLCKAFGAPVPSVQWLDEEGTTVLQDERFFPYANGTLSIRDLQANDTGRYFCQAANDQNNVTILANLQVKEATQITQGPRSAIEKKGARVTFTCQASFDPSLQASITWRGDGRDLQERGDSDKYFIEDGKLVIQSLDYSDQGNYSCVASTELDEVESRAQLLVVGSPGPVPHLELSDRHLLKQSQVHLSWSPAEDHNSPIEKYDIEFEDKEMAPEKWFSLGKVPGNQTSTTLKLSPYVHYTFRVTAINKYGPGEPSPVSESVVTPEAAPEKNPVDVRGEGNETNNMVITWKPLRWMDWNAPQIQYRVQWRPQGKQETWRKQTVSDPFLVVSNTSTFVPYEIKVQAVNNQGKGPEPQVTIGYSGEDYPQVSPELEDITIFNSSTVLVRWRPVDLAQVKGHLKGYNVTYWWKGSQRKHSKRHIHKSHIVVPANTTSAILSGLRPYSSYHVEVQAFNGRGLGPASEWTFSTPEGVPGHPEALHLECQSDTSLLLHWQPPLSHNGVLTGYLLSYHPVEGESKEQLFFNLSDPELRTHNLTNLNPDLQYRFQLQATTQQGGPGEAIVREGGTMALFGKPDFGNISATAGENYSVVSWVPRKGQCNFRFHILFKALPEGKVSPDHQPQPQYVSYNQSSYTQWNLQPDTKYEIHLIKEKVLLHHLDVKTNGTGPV

binding result [1] | binding result [2] | binding result [3] | Binder
binds | binds | – | B1
– | – | binds | B2
